Assay results taken from the supplement of paper PMC9732359.
± gives the uncertainty stated by the source.

Assay: protein stability index of a GFP-peptide fusion (yeast GPS) (PSI 1-4); higher = more stable; sorted into four equal gates, so the index is relative within each strain
Summary of the method: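 Yeast carrying a pooled library were grown to mid-log phase in leucine-free medium. Each library plasmid expresses Cherry and has a tiled 17-residue yeast protein peptide fused downstream of GFP. Cells were sorted into four equal gates by GFP/Cherry ratio, and plasmids from each gate were PCR-amplified, Illumina-sequenced and assigned to strains by barcode. Summing, across gates, the read frequency times the gate number gave each peptide's protein stability index.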

Sequence | protein stability index (doa10∆) | protein stability index (pdr5∆) | protein stability index (san1∆) | protein stability index (ubr1∆)
ILGMLSLADNEIALKGL [YCS4] | 2.42 ± 0.053 | 2.08 ± 0.068 | 2.11 ± 0.089 | 2.25 ± 0.056
TFKDGVILGADSRTTTG [PRE3] | – | 2.8 ± 0.12 | 2.69 ± 0.19 | 2.59 ± 0.14
LFQVESAPKISSEIDRE [SIR4] | 2.35 ± 0.05 | 2.61 ± 0.062 | 2.37 ± 0.053 | 2.42 ± 0.045
WQYYYYTLTEEGVEYLR [RPS10A] | 2.58 ± 0.084 | 2.66 ± 0.072 | 2.74 ± 0.098 | 3.21 ± 0.1
IHLNELLTNDESAFENL [SNF12] | 2.73 ± 0.057 | 2.91 ± 0.052 | 2.88 ± 0.067 | 3.03 ± 0.053
ASSSAKLIEKKSAYANT [SMC2] | 2.82 ± 0.1 | 2.55 ± 0.055 | 2.73 ± 0.079 | 2.79 ± 0.042
IFHPMIHYSWSFILYYR [YML103C/NUP188] | 1.74 ± 0.051 | 1.68 ± 0.032 | 1.69 ± 0.063 | 1.98 ± 0.048
ALGQDTEKMEEQLDLLS [MED11] | 3.03 ± 0.099 | 3.09 ± 0.082 | 2.99 ± 0.073 | 3.31 ± 0.064
QIGQVPLAPAPINLPPQ [SNF5] | 2.35 ± 0.08 | 2.47 ± 0.081 | 2.4 ± 0.14 | 2.5 ± 0.079
RTSTRGRGRGRGRGRGR [SNF2] | 3.41 ± 0.11 | 3.17 ± 0.12 | 2.86 ± 0.098 | 3.08 ± 0.15
KYSAITSSIFQESFNSV [NUT1] | 2.22 ± 0.053 | 2.37 ± 0.046 | 2.7 ± 0.047 | 2.48 ± 0.037
TVKENESDSKLQCHISG [UBP6] | 3.28 ± 0.098 | 3.3 ± 0.11 | 3.05 ± 0.087 | 3.15 ± 0.1
TIGAIFLNHAFDYMNRY [CDC53] | 2.04 ± 0.065 | 2.1 ± 0.066 | 1.78 ± 0.076 | 1.89 ± 0.046
DNKDKEGNAGGDQKTSE [YOR098C/NUP1] | – | 3.6 ± 0.17 | 3.19 ± 0.17 | 3.35 ± 0.074
DELDAIGTKRFDSEKSG [RPT5] | 2.46 ± 0.066 | 1.66 ± 0.058 | 2.25 ± 0.086 | 1.99 ± 0.057
TYEAIEITDAYCFAKND [YMR129W/POM152] | 2.93 ± 0.061 | 2.66 ± 0.053 | 2.7 ± 0.05 | 3.01 ± 0.045
RYRLLSDVSDFEGWGHE [RPN1] | 2.63 ± 0.12 | 3.35 ± 0.1 | 3.07 ± 0.09 | 2.83 ± 0.12
LDQLLVLEKKTRQASDL [RPN5] | 3.19 ± 0.12 | 2.95 ± 0.1 | 3.1 ± 0.07 | 2.71 ± 0.097
TVRLVNLFSSTGFKGLL [SRB2] | 2.31 ± 0.073 | 2.73 ± 0.055 | 2.76 ± 0.06 | 2.9 ± 0.039
YLKKREAGEVKDDGAFV [RPL10] | 3.16 ± 0.11 | 2.8 ± 0.2 | 3.37 ± 0.044 | 3.27 ± 0.1
TTTATPHANPITHAHSL [PGD1] | 2.84 ± 0.043 | 3.01 ± 0.041 | 2.88 ± 0.035 | 3.003 ± 0.029
KYLKKRKIGISIDDHPY [RPC31] | 1.41 ± 0.075 | 1.33 ± 0.081 | 1.77 ± 0.099 | 1.74 ± 0.051
LQRHLSLGIRPCLRKYE [RRP43] | 2.61 ± 0.061 | 2.66 ± 0.063 | 2.82 ± 0.075 | 3.08 ± 0.053
IEAGRAALYKEVYNVIA [RPO21] | 2.36 ± 0.085 | 1.88 ± 0.096 | 2.41 ± 0.13 | 2.82 ± 0.11
ISFRSNLLKNFISSNDA [SNF6] | 2.77 ± 0.12 | 1.75 ± 0.086 | 2.35 ± 0.21 | 2.27 ± 0.074
GLNAKQLYKARMSIKLL [POP1] | 2.13 ± 0.082 | 1.73 ± 0.08 | 2.41 ± 0.06 | 2.37 ± 0.029

Sequence | protein stability index (doa10∆) | protein stability index (pdr5∆) | protein stability index (san1∆) | protein stability index (ubr1∆)
SKNLGEINTALNTLLVT [SWI1] | 1.23 ± 0.077 | 1.79 ± 0.054 | 1.57 ± 0.11 | 1.46 ± 0.066
QIISNAHNKPSLFSKIK [YAR002W/NUP60] | 2.94 ± 0.088 | 2.98 ± 0.093 | 2.77 ± 0.071 | 2.94 ± 0.058
RELTKNILWRIADKTTY [SIR4] | 3.02 ± 0.094 | 2.6 ± 0.065 | 2.68 ± 0.11 | 3.02 ± 0.05
FKGLETPLKARQREMAE [YLR018C/POM34] | 3.27 ± 0.1 | 3.29 ± 0.1 | 2.91 ± 0.088 | 3.41 ± 0.069
NAPTFNPKYDTSNASMN [YAR002W/NUP60] | 3.01 ± 0.046 | 3.08 ± 0.043 | 2.9 ± 0.036 | 3.17 ± 0.046
AQFVSNKQYHQANSNLT [NUT1] | 2.94 ± 0.081 | 3.21 ± 0.076 | 3 ± 0.1 | 3.23 ± 0.092
LAVIMDNIGEIDESLFN [YCG1] | 3.08 ± 0.12 | 3.1 ± 0.064 | 3.13 ± 0.059 | 3 ± 0.12
DLYEQIGIDPPRGVLLY [RPT3] | 2.6 ± 0.073 | 3.02 ± 0.1 | 2.8 ± 0.055 | 2.9 ± 0.08
LIKKAVSVRKHLERNRK [RPS13] | 3.43 ± 0.26 | 3.32 ± 0.11 | – | 3.28 ± 0.1
VIEQCYLKFIPLKRAIW [SRB8] | 1.5 ± 0.053 | 1.69 ± 0.059 | 1.4 ± 0.099 | 1.32 ± 0.042
DWGQALRLLLLLIEFPY [YJR042W/NUP85] | 1.44 ± 0.05 | 1.29 ± 0.049 | 1.39 ± 0.067 | 1.21 ± 0.034
YKATATGPKQQEITTNL [SCL1] | 3.17 ± 0.064 | 3 ± 0.11 | 2.93 ± 0.057 | 3.29 ± 0.078
EKWLLNQIPVTEHSKVT [SRB6] | 1.9 ± 0.051 | 2.6 ± 0.068 | 1.99 ± 0.12 | 2.37 ± 0.057
PKQSDEYLKRVSVPVSG [SIR3] | 3.13 ± 0.086 | 2.55 ± 0.089 | 2.81 ± 0.096 | 2.72 ± 0.14
SSNSQQSTPQPDDMVEI [ITC1] | 3.09 ± 0.064 | 2.74 ± 0.059 | 2.58 ± 0.054 | 2.87 ± 0.047
KKEKLKQENSTLLKKAN [RPC82] | 2.3 ± 0.074 | 2.81 ± 0.093 | 2.71 ± 0.12 | 2.85 ± 0.075
FIEVRNFLGDKKIRNVP [RPL9A] | – | – | – | 3.16 ± 0.12
ENDIEIKGPEFKFSGTV [YLR335W/NUP2] | 2.72 ± 0.14 | 3.04 ± 0.12 | 3.07 ± 0.15 | –
WYEASTWIQQFKSTMLQ [ARP7] | 2.54 ± 0.078 | 2.68 ± 0.069 | 2.6 ± 0.093 | 2.14 ± 0.056
AVDLEHHDYRSYYGIVC [RRP6] | 2.5 ± 0.067 | 2.77 ± 0.049 | 2.37 ± 0.083 | 2.97 ± 0.038
NDDIEWMLSICVEWRLP [YJR042W/NUP85] | 1.64 ± 0.069 | 1.53 ± 0.036 | 1.83 ± 0.11 | 1.9 ± 0.058
SFTDILKSAIRDEIAKN [RPN12] | 2.76 ± 0.1 | 2.98 ± 0.12 | 3.08 ± 0.09 | 2.89 ± 0.065
NIPFWKHVGFELLSMGN [SRP72] | 1.82 ± 0.1 | 1.58 ± 0.085 | 2.01 ± 0.16 | 1.27 ± 0.079
LEVFHHFFKWIEFIVYH [SRB8] | 1.13 ± 0.054 | 1.11 ± 0.047 | 1.08 ± 0.17 | 1.06 ± 0.041
IVKGNIIDEIKCIPKKG [POP4] | 1.79 ± 0.05 | 1.9 ± 0.05 | 2.29 ± 0.06 | 2.09 ± 0.045
FFLSIYFFYASRPEYSC [YJL039C/NUP192] | 1.41 ± 0.056 | 1.35 ± 0.13 | 1.19 ± 0.11 | 1.38 ± 0.057
